Measurements taken from patent CN102875676A (WUXI PROGRAMMED ARTIFICIAL MOLECULAR EVOLUTION CO LTD, dated 2013).

How the values were obtained:
[1] = target: T1, 重组人VEGF (recombinant human VEGF, VEGF-A) (human, UniProt P15692-4 27-191, limits assumed); assay: Friguet method (solution equilibrium with human VEGF, ELISA of free antibody on immobilised VEGF), Fab
[2] = target: T1, 重组人VEGF (recombinant human VEGF, VEGF-A); assay: Friguet method, full-length antibody

T1 sequence (P15692 other isoform, or with tags, fused parts or gaps limits assumed): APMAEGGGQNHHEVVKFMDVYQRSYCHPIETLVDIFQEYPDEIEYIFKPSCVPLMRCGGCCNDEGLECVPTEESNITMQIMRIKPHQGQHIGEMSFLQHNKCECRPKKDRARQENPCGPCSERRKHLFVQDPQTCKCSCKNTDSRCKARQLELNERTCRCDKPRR

| Binder | Kd [1] [nM] | Kd [2] [nM] |
| --- | --- | --- |
| 6B2 Fab (候选分子6B2) (Fab, V domains shown) VH: EVQLVQSGGGVVQPRRSLRLSCAASGFDIYDDDIHWVRQAPGKGLEWVYIAPSYGYTRYADSVKGRFTVSRDNSKNTLYLQMNSLRAEDTSVYYCARSSDASYSYSAMDYWGQGTLVTVSS VL: DIQMTQSPSSVSASIGDRVTITCRASQDASYSSAWYQQRPGKAPELLIYSAASYESGVPSRFSGSGSGTDFTLTISSLQAEDFATYYCQSSASPATFGQGTRLEIKR | 0.276 | – |
| 全长6B2 (F6B2), full-length antibody (antibody, V domains shown, expressed in DG44 cells; also called 6B2全长抗体分子) VH: EVQLVQSGGGVVQPRRSLRLSCAASGFDIYDDDIHWVRQAPGKGLEWVYIAPSYGYTRYADSVKGRFTVSRDNSKNTLYLQMNSLRAEDTSVYYCARSSDASYSYSAMDYWGQGTLVTVSS VL: DIQMTQSPSSVSASIGDRVTITCRASQDASYSSAWYQQRPGKAPELLIYSAASYESGVPSRFSGSGSGTDFTLTISSLQAEDFATYYCQSSASPATFGQGTRLEIKR | – | 0.022 |
| 3D7 Fab (原型分子3D7) (Fab, V domains shown, Tested as a Fab (phage supernatant in the screen); also called 原型抗体3D7) VH: EVQLVESGGGLVQPGGSLRLSCAASGFNIKDTYIHWVRQAPGKGLEWVAYIAPSYGYTRYADSVKGRFTISADTSKNTAYLQMNSLRAEDTAVYYCSRSSDASYSYSAWGQGTLVTVSS VL: DIVMTQSPSSLSASVGDRVTITCRASQFVGFYIHWYQQKPGKAPKLLIYAASERATGVPSRFSGSRSGTDFTLTISSLQPEDFATYYCQQWLNNPFTFGQGTKVEIKR | 1.56 | – |
